# Experimental data taken from article PMC9989928.
# Columns and labels:
# Conditions in all cases: glycan lost; control: wild-type VMO1-myc-his6
# [1] = cycloheximide chase, western blot of lysates
# [2] = anti-myc western blot of conditioned media
# [3] = anti-myc western blot of total cell lysates
protein,measurement,setting,value
vitelline membrane outer layer protein 1 homolog (VMO1): W105F (protein) parent chain: MERGAGAKLLPLLLLLRATGFTCAQTDGRNGYTAVIEVTSGGPWGDWAWPEMCPDGFFASGFSLKVEPPQGIPGDDTALNGIRLHCARGNVLGNTHVVESQSGSWGEWSEPLWCRGGAYLVAFSLRVEAPTTLGDNTAANNVRFRCSDGEELQGPGLSWGDFGDWSDHCPKGACGLQTKIQGPRGLGDDTALNDARLFCCRS,degradation_or_half_life,[1],increases
same,expression_or_secretion,[2],no change
same,expression_or_secretion,[3],increases
